# Results reported in paper PMC3511376.
# Target: HIV-1 envelope glycoprotein gp120 (YU2) (HIV-1 (YU2)) (UniProt P35961)
# Assay: SPR; BIAcore 3000, CM4 chip; gp120YU2 amine-coupled (514 RU for the Lg-CRD chip, 838 RU for the Lg-ECD chip), BSA control flow cell; Langerin injected at 20 µl/min; running buffer 150 mM NaCl, 25 mM Tris pH 7.8, 4 mM CaCl2, 0.005% P20; regeneration with 50 mM EDTA; 1:1 Langmuir fit for Lg-CRD, EC50 from titration for Lg-ECD
substance,measurement,value
Langerin carbohydrate-recognition domain (CRD) (domain or fragment),Kd,25 µM
